From patent publication US20240101959A1, “USE OF IL-2R-BETA-GAMMA AGONIST PEPTIDES IN CELL MANUFACTURING” (MEDIKINE, INC., priority 2022, published 2024)
No end group written: not given here.

T1: hu-IL-2Rβ subunit (human, UniProt P14784 27-240, limits assumed)
T1 construct: also called human interleukin-2 receptor subunit β; CD122
T1 sequence (looked up): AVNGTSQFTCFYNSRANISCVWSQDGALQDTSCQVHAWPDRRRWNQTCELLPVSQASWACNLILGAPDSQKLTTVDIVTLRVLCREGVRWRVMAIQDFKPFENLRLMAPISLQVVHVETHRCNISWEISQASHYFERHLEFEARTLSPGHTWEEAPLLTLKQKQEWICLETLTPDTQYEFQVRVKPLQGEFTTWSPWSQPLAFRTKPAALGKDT


molecular target: T1, hu-IL-2Rβ subunit; assay: phage ELISA competition assay

IC50	Binder
< 100 µM	HIFHDCFIAKVGDLCDLFHS [SEQ ID NO 573]
< 100 µM	WPCWALGELCDLD [SEQ ID NO 558]
< 100 µM	YWCSVWQLGSVCEMNNEETQ [SEQ ID NO 549]
< 100 µM	DFFHDCFFAKVGDLCDFFFG [SEQ ID NO 569]
< 100 µM	WTCWLTQLGYDCNLDVVDQSLG [SEQ ID NO 550]
< 100 µM	AFFHDCFFAKAGDLCDFFDD [SEQ ID NO 568]
< 10 µM	YPCHMAQLGELCDLWSWGDI (not fully specified (bridges); cysteine pairing not given here) [SEQ ID NO 620]
< 100 µM	WYPCYRARLGELCDLD [SEQ ID NO 82]
< 100 µM	EFWGWQCWQEPLGWSCDLEWMD [SEQ ID NO 552]
< 100 µM	QMVWWDCWSTQEGPVCELNWTA [SEQ ID NO 548]
< 100 µM	LVDCFKVKVGELCDLF (not fully specified (bridges); cysteine pairing not given here) [SEQ ID NO 555]
< 100 µM	NRRWYPCWMAQLGELCDLDSRP [SEQ ID NO 119]
< 100 µM	WPCWLGELCDLD [SEQ ID NO 559]
< 100 µM	DGSWYTCWFTQLGEWCEQDDAK [SEQ ID NO 551]
< 100 µM	KSNFFPCWIAQLGQLCDLEPET [SEQ ID NO 121]
< 10 µM	YPCWMAQLGELCDL [SEQ ID NO 621]
< 100 µM	WYPCWVAQLGEICDLEMTGPDSWYP [SEQ ID NO 117]
< 10 µM	VQYKKCWMAQLGDLCELDPS (not fully specified (bridges); cysteine pairing not given here) [SEQ ID NO 619]
< 100 µM	WYPCWGELCDLD [SEQ ID NO 560]
< 100 µM	WPCWAALGELCDLD [SEQ ID NO 557]
< 100 µM	VHDCFIAQVGDLCDLF [SEQ ID NO 556]
< 100 µM	EHFHDCFFAKVGDLCDIFGN [SEQ ID NO 571]
< 100 µM	EGFHDCFFAKVGDLCDIFGH [SEQ ID NO 570]
< 100 µM	EHFHDCFFAKVGDLCDKFGQ [SEQ ID NO 572]
< 100 µM	QDGWLPCWMAQLGELCDLEYKR [SEQ ID NO 118]
< 100 µM	WYTCMMDWLGVHCELE [SEQ ID NO 547]
